In paper PMC7156110, “The MAPK substrate MASS proteins regulate stomatal development in Arabidopsis” (PLoS Genetics, 2020):

Target: T1, MBP-YDA (recombinant YODA) (Arabidopsis thaliana, UniProt Q9CAD5 1-883)
T1 construct: MAPKK kinase YODA (YDA, AT1G63700), Arabidopsis thaliana; also called MBP-tagged YDA; source: E. coli BL21 (DE3), purified (Amylose Resin)
T1 sequence (looked up): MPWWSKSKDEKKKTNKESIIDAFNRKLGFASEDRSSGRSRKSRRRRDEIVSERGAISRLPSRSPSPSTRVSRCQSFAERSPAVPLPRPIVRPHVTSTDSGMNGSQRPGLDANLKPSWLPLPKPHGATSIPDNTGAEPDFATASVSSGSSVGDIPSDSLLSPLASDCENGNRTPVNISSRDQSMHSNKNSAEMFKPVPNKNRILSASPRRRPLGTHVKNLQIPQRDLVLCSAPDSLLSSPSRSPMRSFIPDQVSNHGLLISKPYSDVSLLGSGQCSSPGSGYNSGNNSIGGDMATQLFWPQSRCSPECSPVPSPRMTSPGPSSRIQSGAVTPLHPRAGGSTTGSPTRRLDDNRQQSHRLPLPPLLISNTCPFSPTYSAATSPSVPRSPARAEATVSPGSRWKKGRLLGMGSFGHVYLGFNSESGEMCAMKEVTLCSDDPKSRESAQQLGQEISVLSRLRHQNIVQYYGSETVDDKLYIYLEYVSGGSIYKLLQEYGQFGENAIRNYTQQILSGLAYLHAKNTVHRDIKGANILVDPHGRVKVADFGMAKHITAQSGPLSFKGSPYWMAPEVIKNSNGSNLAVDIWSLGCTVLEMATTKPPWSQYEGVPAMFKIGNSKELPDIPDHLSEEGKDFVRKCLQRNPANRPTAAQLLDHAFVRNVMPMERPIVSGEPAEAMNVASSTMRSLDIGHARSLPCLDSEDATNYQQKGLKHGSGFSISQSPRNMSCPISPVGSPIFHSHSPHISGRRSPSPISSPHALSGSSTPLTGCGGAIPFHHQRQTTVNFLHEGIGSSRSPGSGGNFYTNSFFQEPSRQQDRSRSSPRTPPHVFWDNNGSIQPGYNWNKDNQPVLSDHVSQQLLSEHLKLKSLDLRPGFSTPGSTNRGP
Experiment: pull-down; MBP-YDA held on Amylose Resin, incubated with His-MASS2 at 4°C for 2 h; washing buffer 50 mM Tris-HCl pH 7.5, 10 mM MgCl2, 150 mM NaCl, 1 mM DTT; blots with anti-His and anti-MBP
Settings: both partners purified

binding result: binds
B1: His-MASS2.3 (MASS2 splicing variant 3, recombinant) (natural protein, Arabidopsis thaliana, UniProt Q9XI29 1-148, looked up)
chain: MEGLQRSTISFRRQGSSGIVFDDRLIAELNKSGNNEQKDESQRDEQPKPMSESSEQVKPIDEKDKLRPIKTGGGAPGGIERSRSNGGGAQRHHRTTGRVSPAVDPPSPRISSCGCCSAFGKNPPGKKVNPRKRPPKRRSRRRIVTKKR
notes: source: E. coli BL21 (DE3), purified (Ni-NTA agarose)
